# Laboratory results as given in US9492501B2, “Antiviral agent” (priority 2009, dated 2016).
# B1: HPBP: human phosphate binding protein, plasma DING protein of 38 kDa, SEQ ID NO: 2, purified from human plasma (protein, listed as Homo sapiens)
# chain: DINGGGATLPQKLYLTPDVLTAGFAPYIGVGSGKGKIAFLENKYNQFGTDTTKNVHWAGSDSKLTATELATYAADKEPGWGKLIQVPSVATSVAIPFRKAGANAVDLSVKELCGVFSGRIADWSGITGAGRSGPIQVVYRAESSGTTELFTRFLNAKCTTQPGTFAVTTVFANSYSLGLSPLAGAVAAIGSVGVMAADNDVTTAQGRITYISPDFAAPTLAGLDDATKVARTGKGSSSGGGAEGKSPAAANVSAAISVVPLPAAADRGDPNVWTPVFGAVTGGGVVAYPDSGYPILGFTDLIFSECYANATQTGQVRNFFTKHYGTSANDNAAIQANAFVPLPSNWKAAVRASYLTASNALSIGDSAVCGGKGRPE
# B2: p27^SJ: St. John's wort protein, SEQ ID NO: 4, 71% sequence homology with SEQ ID NO: 1, excluded from the invention (protein, listed as Hypericum perforatum)
# chain: MADINGGGATLPQALYQTSGVLTAGFAPYIGVGSGNGKAAFLNNDYTKFQAGVTNKNVHWAGSDSKLSATELSTYASAKQPTWGKLIQVPSVGTAVAIPFNKSGTAAVDLSVSELCGVFSGRITDWSGISGSGRTGAITVVYRSESSGTTELFTRFLNAKCAETGTFNISTTFGTSYTGGLPAGAVSAAGSQGVMTALAGADGGTTYMSPDFAAPTLAGLDDATKVARVGKDVATNTAGVSPAAANVSAAINAVPVPASTEKP
# B3: PON-1: human paraoxonase (PON1), co-purified with HPBP from plasma and separated on hydroxyapatite (protein)
# chain: AKLIALTLLGMGLALFRNHQSSYQTRLNALREVQPVELPNCNLVKGIETGSEDLEILPNGLAFISSGLKYPGIKSFNPNSPGKILLMDLNEEDPTVLELGITGSKFDVSSFNPHGISTFTDEDNAMYLLVVNHPDAKSTVELFKFQEEEKSLLHLKTIRHKLLPNLNDIVAVGPEHFYGTNDHYFLDPYLQSWEMYLGLAWSYVVYYSPSEVRVVAEGFDFANGINISPDGKYVYIAELLAHKIHVYEKHANWTLTPLKSLDFNTLVDNISVDPETGDLWVGCHPNGMKIFFYDSENPPASEVLRIQNILTEEPKVTQVYAENGTVLQGSTVASVYKGKLLIGTVFHKALYCEL
# What was measured:
# GST-Tat protein = target: T1, GST-Tat protein (Human immunodeficiency virus type 1 group M subtype B, UniProt P04608); assay: ELISA of in vitro interaction of HPBP and Tat proteins; format: binding, HIV-1; conditions: GST-Tat adsorbed on plate, pure HPBP 0.1 nM to 100 mM
# T1 construct: made in house
# T1 sequence (P04608 whole entry): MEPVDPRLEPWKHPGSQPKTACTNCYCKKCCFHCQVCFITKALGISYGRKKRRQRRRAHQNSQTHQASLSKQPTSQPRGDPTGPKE
# Protocol: (§1) The combination of the Human Phosphate Binding Protein (HPBP) with the C/EBPβ protein is carried out using an ELISA technique.
# In flat-bottom 96-well ELISA plates having a high protein-binding affinity the GST-Tat protein is adsorbed on the support and incubated overnight at 4° C.
# (§2) The proteins not bound to the plate are removed by washing with a Phosphate Buffered Saline (PBS) buffer containing 10 mg/mL of Bovine Serum Albumin (BSA).
# The wells are saturated with a Phosphate Buffered Saline (PBS) buffer solution containing 20 mg/mL of Bovine Serum Albumin (BSA) for 1 hour at room temperature in order to eliminate the background noise. […]
# (§3) Then after a last washing, the plate is incubated with an HRP substrate (3,3′,5,5′-tetramethylbenzidine: TNB in the presence of hydrogen peroxide H2O2). […] The optical density of the product of the reaction is then measured with a spectrophotometer at 450 nm.
# The inventors used the Enzyme Linked Immunosorbent Assay (ELISA) technique, suited to studying the interaction between the HPBP protein and the HIV-1 (TAT) protein (Engvall and Perlmann, 1971)). The HIV-1 TAT protein was expressed in the form of a fusion with GST in order to obtain the soluble protein and in quantity (approximately 2 mg/mL). […]
# [1] = tested on: HIV-1 promoter (HIV-1 LTR); assay: HIV-1 transcriptional activity, luciferase test in HIV-LTR Jurkat line; format: cell-based; conditions: treatment 24 hours
# Text: (§4) Method: a Jurkat CD4+ T lymphocyte cell line (line 1G5) having integrated into its genome a construction comprising a luciferase reporter gene the expression of which is controlled by the HIV-1 promoter (HIV-1 LTR; HIV-LTR Jurkat line) was used. The measurement of luciferase activity from the cell extracts therefore makes it possible to estimate the HIV-1 transcriptional activity.
# (§5) The Jurkat HIV-LTR and Jurkat 1G5 lines were transfected by means of the DEAE-dextran technique with the proviral genome NL4.3 (complete HIV-1 genome, strain LAI).
# (§6) The HIV-LTR Jurkat and 1G5 Jurkat lines thus infected, are treated 24 hours later with HPBP/PON protein complexes or with purified PON or HPBP proteins at a final concentration of 2 μg/mL of medium (52 nM of protein alone).
# (§7) The cells and the cell supernatant are sampled after treatment for 24 hours.
# The transcriptional activity is measured by carrying out a luciferase test. The intensity of the HIV-1 replication is measured by means of ELISA assay of the quantity of viral p24 capsid proteins present in the supernatant of the cell cultures of the infected 1G5 lines [Rohr, O., et al. (2000). The Journal of Biological Chemistry 275, 2654-2660].
# An untreated negative control as well as a positive control treated with AZT at a final concentration of 10 μM were carried out in parallel. Each experiment is carried out in triplicate.
# In parallel, the infected lymphocyte lines obtained were treated with 10 μg of potato DING protein.
# Method: a Jurkat CD4+ T lymphocyte cell line (line 1G5) having integrated into its genome a construction comprising a luciferase reporter gene the expression of which is controlled by the HIV-1 promoter (HIV-1 LTR; HIV-LTR Jurkat line) was used. Measurement of luciferase activity from the cell extracts therefore makes it possible to estimate the HIV-1 transcriptional activity. […]
# (§8) The transcriptional activity and inhibition of the replication are measured as described in Example 6.
# C/EBPβ protein = C/EBPβ protein (Homo sapiens, UniProt P17676); assay: ELISA of in vitro interaction of HPBP and C/EBPβ proteins; format: binding; conditions: C/EBPβ adsorbed on plate, pure HPBP 0.1 nM to 100 mM
# Sequence of C/EBPβ protein (P17676 whole entry, species assumed): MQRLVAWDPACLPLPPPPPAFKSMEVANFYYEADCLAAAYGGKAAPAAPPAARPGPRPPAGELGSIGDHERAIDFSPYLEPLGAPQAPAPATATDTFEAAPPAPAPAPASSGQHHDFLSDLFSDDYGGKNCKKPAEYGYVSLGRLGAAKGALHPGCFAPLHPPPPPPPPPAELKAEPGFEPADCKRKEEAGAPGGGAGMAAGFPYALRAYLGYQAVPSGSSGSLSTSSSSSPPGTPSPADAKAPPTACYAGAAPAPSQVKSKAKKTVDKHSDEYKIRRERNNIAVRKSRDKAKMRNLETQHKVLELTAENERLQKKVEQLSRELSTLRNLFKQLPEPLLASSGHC
# Protocol: as §1
# In ELISA flat-bottom 96-well plates having a high binding affinity for proteins, the C/EBPβ protein is adsorbed on the support and incubated overnight at 4° C.
# as §2
# The wells are saturated with a Phosphate Buffered Saline (PBS) buffer solution containing 20 mg/mL of Bovine Serum Albumin (BSA) for 1 hour at room temperature in order to remove the background noise.
# After washing with a Phosphate Buffered Saline (PBS) solution containing 10 mg/mL of Bovine Serum Albumin (BSA), different solutions of pure HPBP from 0.1 nM to 100 mM are added to the wells for incubation for 1-3 hours at RT.
# The plate is once again washed then incubated with mouse monoclonal anti-HPBP antibodies or rabbit polyclonal anti-HPBP antibodies for incubation for 1-3 hours at RT. […]
# as §3
# [2] = tested on: HIV-1 (proviral genome NL4.3, strain LAI); assay: HIV-1 replication, ELISA of viral p24 capsid protein in supernatant of infected Jurkat 1G5 cells; format: cell-based; conditions: treatment 24 hours
# Text: as §4, §5, §6, §7
# The transcriptional activity is measured by carrying out a luciferase test. The intensity of the HIV-1 replication is measured by means of ELISA assay of the quantity of viral p24 capsid proteins present in the supernatant of the cell cultures of the infected 1G5 lines [Rohr, O., et al. (2000). The Journal of Biological Chemistry 275, 2654-2660]. […]
# as §8
# Microglial cell line = assay: Cell toxicity by MTT method, microglial cell line; format: cell-based; conditions: for LD50: microglial line, MTT
# Protocol: (§9) After culture for 24 hours, the toxicity of the protein is evaluated by measuring the number of living cells by the MTT method (3-(4,5-dimethylthiazol-2-yl)-2,5-diphenyl tetrazolium bromide) as described in Berridge et al. Biotechnology Annual Review, 2005, 11, 127-152.
# Similar experiments were carried out on microglial lines. Conditions similar to those used for the 1g5 cells were used, with 5.10^5 cells/mL.
# (§10) The PBL cells were treated with 0.24 μg/mL, 0.48 μg/mL, 0.96 μg/mL, 2.4 μg/mL, 4.8 μg/mL, 9.6 μg/mL, or 24 μg/mL of HPBP protein. Untreated cells were tested as a control.
# The cell toxicity of St. John's wort protein p27^SJ was measured on cells in culture under the conditions described in Example 15. The p27^SJ was tested at doses of 0 μg/mL (control), 0.01 μg/mL, 0.1 μg/mL, 0.5 μg/mL, 1 μg/mL, 5 μg/mL, 10 μg/mL, 20 μg/mL and 40 μg/mL.
# Cell Line R3HR-1G5 (1g5) = assay: Cell toxicity by MTT method, cell line R3HR-1G5 (1g5); format: cell-based; conditions: 1g5 cells, culture 24 hours, FIG. 10
# Protocol: The cell toxicity of the HPBP protein was measured on cells in culture.
# 5.10^6 cells/mL of the lymphoid line B 1g5 were seeded on plates and treated, or not treated, with different doses of purified HPBP protein: 0.2 μg/mL, 2 μg/mL, 20 μg/mL, or 90 μg/mL.
# The cells are cultured for 24 hours at 37° C.
# as §9
# Briefly, 10 μL of MTT is added to each culture.
# The mixture is added quickly over 1 minute, then the cultures are returned to 37° C. for 4 hours.
# The culture supernatant is then aspirated, and the crystals formed by the presence of MTT are dissolved with acetic acid.
# The optical density (OD) of each of the cultures is measured at 570 nm using a spectrophotometer.
# [3] = tested on: Peripheral Blood Lymphocyte (PBL) cells; assay: Cell toxicity by MTT method, peripheral blood lymphocytes; format: cell-based; conditions: FIG. 11
# Protocol: as §9
# Similar experiments were carried out on primary lymphocytes. Conditions similar to those used for the 1g5 cells were used.
# as §10
Molecule,interaction of HPBP protein and Tat protein in vitro (GST-Tat protein),"transcriptional activity repressed ([1]; 2 μg/mL (52 nM), luciferase, FIG. 3)","inhibits the viral replication by a factor (FIG. 5) ([1]; HPBP 2 μg/mL, FIG. 5 (luciferase activity))",interaction of HPBP protein and C/EBPβ protein in vitro (C/EBPβ protein),"inhibition of HIV-1 replication ([2]; 2 μg/mL (52 nM), p24 in supernatant, CD4+ T lymphocytes (Jurkat 1G5))",LD50 (Microglial cell line; FIG. 12),"lethal dose 50% (LD50, dose killing half of the cells) (Cell Line R3HR-1G5 (1g5))",LD50 [3],"cell toxicity (in words) (Microglial cell line; conditions of Example 15, FIG. 12)","cells dead (Microglial cell line; dose of 40 μg/mL, FIG. 12)","inhibiting effect on transcriptional activity (in words) ([1]; 2 μg/mL, luciferase, FIG. 3)","repressive effect on HIV-1 replication (in words) ([2]; 2 μg/mL, p24, FIG. 4)"
B1,capable of interacting in vitro,80%,> 6,capable of interacting in vitro,89%,approximately 2.5 μg/mL,approximately 20 μg/mL,approximately 5 μg/mL,,,,
B2,,,,,,greater than 2.5 μg/mL,,,toxicity very clearly less than that of the HPBP protein,approximately 4%,,
B3,,,,,,,,,,,does not have such an inhibiting effect,no repressive effect
